Publication PMC8300647, “Effects of Serine or Threonine in the Active Site of Typical 2-Cys Prx on Hyperoxidation Susceptibility and on Chaperone Activity” (Antioxidants, 2021)
Changes are numbered by the printed parent chain. Names and notes keep the numbering of the source.

B1: AhpC from Pseudomonas aeruginosa (enzyme, UniProt Q9I6Z3 1-187, looked up)
chain: MSLINTQVQPFKVNAFHNGKFIEVTEESLKGKWSVLIFMPAAFTFNCPTEIEDAANNYGEFQKAGAEVYIVTTDTHFSHKVWHETSPAVGKAQFPLIGDPTHQLTNAFGVHIPEEGLALRGTFVINPEGVIKTVEIHSNEIARDVGETVRKLKAAQYTAAHPGEVCPAKWKEGEKTLAPSLDLVGKI
notes: The forward primer carries the ATG of the Nde I site followed by the gene's own ATG, so one more Met may precede the natural start; The strain that was amplified (ATCC29853) is not the strain of the genome used for the primers; also called PaAhpC; ahpc (Pa); source: E. coli BL21 (DE3), pET15b, purified (IMAC HisTrap, PD10 desalting)
B2: PaAhpC^T44S (enzyme)
chain: B1 chain with T44S
notes: AhpC of Pseudomonas aeruginosa with the catalytic triad Thr changed to Ser; printed as T44S in the SEC text and legend and as T43S in the primers' names and other legends (one mutant; mutagenic primer encodes AAFSFNC); Made by site directed mutagenesis (Quick Change II) of the pET15b-ahpc (Pa) plasmid; also called PaAhpC^T43S; source: E. coli BL21 (DE3), pET15b, purified (IMAC HisTrap, …)

Tests used:
[1] = target: the molecule itself; assay: SEC; reduced samples: 30 uM protein treated with 5 mM TCEP, excess removed by PD10; Phenomenex BioSep-SEC-S2000, 100 mM Tris-HCl pH 7.4, 1 mL/min, absorbance at 280 nm; self-association (decamer, dimer)
[2] = target: the molecule itself; assay: SEC; oxidized samples (disulfide): reduced 30 uM protein treated with 36 uM H2O2 for 30 min at room temperature; Phenomenex BioSep-SEC-S2000, 100 mM Tris-HCl pH 7.4, 1 mL/min, absorbance at 280 nm; self-association (decamer, dimer)

Row | Protein | stoichiometry N [1] | stoichiometry N [2]
1 | B1 | 10 | 2
2 | B2 | 10 | –
